Results as given in patent US20230039487A1.
pEC50, pIC50: −log10 of the molar value.

Experiments:
[1] = molecular target: hBCMA-His (human) (UniProt Q02223); test: ELISA; isotype control
[2] = molecular target: hBCMA-mFc (UniProt Q02223); test: competition ELISA; isotype control; blocking of APRIL binding
Sequence of hBCMA-mFc (Q02223 1-54): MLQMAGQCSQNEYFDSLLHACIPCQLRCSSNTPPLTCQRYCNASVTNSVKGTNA

Sequence of hBCMA-His (human) (Q02223 1-54): as above

pEC50 [1]: 7.21
pIC50 [2]: 6.69
Substance: h IgG1 ISO
